From article PMC8138766, “Defining steps in RAVE-catalyzed V-ATPase assembly using purified RAVE and V-ATPase subcomplexes” (The Journal of Biological Chemistry, 2021) come the findings set out here.

By Kd is commonly meant a measure of binding affinity in units of concentration.

The target of this test is RAVE–V1 complex (yeast | yeast (endogenous), UniProt P47104 1-1357; Q03956 1-351; P52286 1-194; P16140 1-517; P32610 1-256; P22203 …, VMA1 intein (284-737) spliced out; Rav2 C-terminal FLAG and Skp1 C-terminal 6xGly-6xHis tags omitted; subunit C (Vma5) only substoichiometric, so omitted; V1 copy numbers (A3B3DE3FG3H) and RAVE 1:1:1). Briefly: BLI; Octet RED384, 22 °C, PBS or TBSE with 0.5 mg/ml BSA; MBP-C (5 μg/ml) captured by anti-MBP antibody on anti-mouse IgG sensors; RAVE–V1 or RAVE in solution at varied concentrations, 2400 s association and 2400 s dissociation; global single-site fit. As to conditions: both partners purified. In general terms: Biolayer interferometry detects binding as a change in optical thickness at a sensor tip.

Where “and” joins values, the source holds several entries; their conditions need not be identical. Identical values can stand only once.

B1: maltose-binding protein (MBP)–tagged subunit C (natural protein, yeast, UniProt P31412 1-392, looked up)
chain: MATALYTANDFILISLPQNAQPVTAPGSKTDSWFNETLIGGRAFVSDFKIPEFKIGSLDTLIVESEELSKVDNQIGASIGKIIEILQGLNETSTNAYRTLPINNMPVPEYLENFQWQTRKFKLDKSIKDLITLISNESSQLDADVRATYANYNSAKTNLAAAERKKTGDLSVRSLHDIVKPEDFVLNSEHLTTVLVAVPKSLKSDFEKSYETLSKNVVPASASVIAEDAEYVLFNVHLFKKNVQEFTTAAREKKFIPREFNYSEELIDQLKKEHDSAASLEQSLRVQLVRLAKTAYVDVFINWFHIKALRVYVESVLRYGLPPHFNIKIIAVPPKNLSKCKSELIDAFGFLGGNAFMKDKKGKINKQDTSLHQYASLVDTEYEPFVMYIINL
notes: V-ATPase V1 subunit C (Vma5), yeast; MBP was not cleaved; also called MBP-C; expressed subunit C; source: E. coli Rosetta2, purified (amylose column)
On to B1, for which the Kd is 13.6 nM and 18.1 nM.
